Measured values: patent US10220090B2, “BCMA Antigen binding proteins” (Amgen Inc., priority 2012, dated 2019)

T1: human BCMA (Homo sapiens, UniProt Q02223, N81S)
T1 construct: expressed in transfected cells
T1 sequence (Q02223 1-184 N81S): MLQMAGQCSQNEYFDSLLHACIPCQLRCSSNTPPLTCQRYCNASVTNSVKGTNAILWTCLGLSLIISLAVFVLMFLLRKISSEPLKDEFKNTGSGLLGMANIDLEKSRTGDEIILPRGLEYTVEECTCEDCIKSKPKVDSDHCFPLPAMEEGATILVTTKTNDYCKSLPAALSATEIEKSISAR

T2: BCMA on H929 cells (Homo sapiens, UniProt Q02223, N81S)
T2 construct: host or cells: H929
T2 sequence (Q02223 1-184 N81S): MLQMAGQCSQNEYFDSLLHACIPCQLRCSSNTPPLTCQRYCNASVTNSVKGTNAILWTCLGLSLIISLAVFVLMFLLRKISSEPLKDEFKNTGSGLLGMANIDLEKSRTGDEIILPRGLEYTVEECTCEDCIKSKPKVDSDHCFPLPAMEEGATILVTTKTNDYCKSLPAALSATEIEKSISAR


Tests used:
human BCMA = biological target: T1, human BCMA; assay: FACS binding on cells transiently transfected to express full length BCMA
Protocol: An important criterion is exquisite selectivity for wild-type human BCMA expressed on the surface of cells. FACS binding on cells transiently transfected to express full length BCMA, TACI, or BAFF-R was performed using standard techniques. Approximately 40×10^6 of the transiently-transfected target cells were resuspended in a staining solution (2% goat serum, 1% rabbit serum, 0.02% azide in PBS) and aliquoted into round-bottom, 96-well plate (Corning Incorp., Acton, Mass.) as per the experiment design. The cells were incubated at 4 degrees celsius for 30 minutes to block non-specific sites. The antibodies were titrated into the staining solution. The cells were rinsed in a rinse solution (PBS+0.02% azide) by resuspending the cells in 200 ul/well. The cells were centrifuged at 1500 rpm at 4 degrees celsius for 7 minutes. The rinse solution was removed and the rinse step was repeated. The cells were resuspended in the appropriate antibody solution (see the matrix in TABLE 4) at 30 ul/well and incubated at 4 degrees celsius for 30 minutes. […] For the mouse IgG1 negative control and the two mouse antibodies (1.183 and 1.288), the secondary reagent was an anti-mouse IgG-PE conjugate (BD Pharmingen Cat. 550589). The cells/antibodies were rinsed as described above to remove excess/unbound antibody. […] Samples were read at 532 nm wavelength on FACS. […]

BCMA on H929 cells = biological target: T2, BCMA on H929 cells; assay: FACS binding to native BCMA on H929 myeloma cells
Protocol: Approximately 10 to 40×10^6 of H929 myeloma cells were resuspended in a staining solution (2% goat serum, 1% rabbit serum, 0.02% azide in PBS) and aliquoted into round-bottom, 96-well plate (Corning Incorp., Acton, Mass.) as per the experiment design. The cells were incubated at 4 degrees celsius for 30 minutes to block non-specific sites. The antibodies were titrated into the staining solution. The cells were rinsed in a rinse solution (PBS+0.02% azide) by resuspending the cells in 200 ul/well. The cells were centrifuged at 1500 rpm at 4 degrees celsius for 7 minutes. The rinse solution was removed and the rinse step was repeated. […] The cells/antibodies were rinsed as described above to remove excess/unbound antibody. After the last rinse, the cells were resuspended in 200 ul of rinse solution with a drop of staining solution added to keep the cells from aggregating.
The antibodies were tested for binding to BCMA endogenously-expressed on a variety of cells, including the H929 cell line, which were developed from B-lymphocytes from a myeloma/plasmacytoma patient (ATCC, Manassa, Va.) using standard FACs techniques. […] The supernatants were removed and the cell pellets were resuspended in 0.2 mL/tube 4% paraformaldehyde in PBS and analyzed by flow cytometry

H929 = assay: CellTiter-Glo Luminescent Cell Viability Assay, H929; type: cell-based, human; settings: ADCs of hybridoma-derived antibodies
Protocol: The ADCs were tested for the ability to target and kill BCMA-expressing myeloma cells. The CellTiter-Glo® Luminescent Cell Viability Assay is a homogeneous method to determine the number of viable cells in culture based on quantitation of the ATP present, which signals the presence of metabolically active cells. The CellTiter-Glo® Assay is applicable to cytotoxicity assays (see http://www.promega.com/products/cell-health-assays/cell-viability-assays/celltiter_glo-luminescent-cell-viability-assay/for more information). The cell viability assay was used to assess the relative killing capacity of various ADCs on various multiple myeloma cell lines and B-cell lines. The protocol provided in the Cell Titer-Glo kit (Promega G7572) was followed. […] The ADCs were diluted into a 10× stock to create 500 nM maytansine drug equivalents. […] 10 ul of the 10×ADC dilution series was added to the 90 ul of cells in media (triplicate wells). The highest concentration of ADC was approximately 50 nM maytansine drug equivalents, and the lowest concentration of ADC was approximately 50 pM maytansine drug equivalents. An isotype control ADC (an anti-streptavidin huIgG1 conjugated to MCC-DM1) was included, as well as a media-only control. The plates were incubated at 37° C., 5% CO2 for 96 hours. After incubation, 100 ul of the Substrate Solution (Promega G7572) was added to each well. Luminescence was read on an EnVision™ Multilabel reader (PerkinElmer) or Analyst HT plate reader (LJL Biosciences). The data was analyzed and graphed using GraphPad Prism™ to determine the relative efficacy of the ADCs on various cancer cell lines.
The 2A1CV5-MCC-DM1, 32B5-MCC-DM1 and 29C12-MCC-DM1 ADCs were tested for the ability to target and kill BCMA-expressing myeloma cells (H929). The CellTiter-Glo® Luminescent Cell Viability Assay is a homogeneous method to determine the number of viable cells in culture based on quantitation of the ATP present, which signals the presence of metabolically active cells. The CellTiter-Glo® Assay is applicable to cytotoxicity assays (see http://www.promega.com/products/cell-health-assays/cell-viability-assays/celltiter_glo-luminescent-cell-viability-assay/for more information). The cell viability assay was used to assess the relative killing capacity of various ADCs on various multiple myeloma cell lines and B-cell lines. The protocol provided in the Cell Titer-Glo kit (Promega G7572) was followed. […] The ADCs were diluted into a 10× stock to create 500 nM maytansine drug equivalents. […] 10 ul of the 10×ADC dilution series was added to the 90 ul of cells in media (triplicate wells). The highest concentration of ADC was approximately 50 nM maytansine drug equivalents, and the lowest concentration of ADC was approximately 50 pM maytansine drug equivalents. An isotype control ADC (an anti-streptavidin huIgG1 conjugated to MCC-DM1) was included, as well as a media-only control. The plates were incubated at 37° C., 5% CO2 for 96 hours. After incubation, 100 ul of the Substrate Solution (Promega G7572) was added to each well. Luminescence was read on an EnVision™ Multilabel reader (PerkinElmer) or Analyst HT plate reader (LJL Biosciences). The data was analyzed and graphed using GraphPad Prism™ to determine the relative efficacy of the ADCs on various cancer cell lines.

Molecule | BCMA (FACS binding) (human BCMA) | binding to human BCMA on the surface of H929 myeloma cell line (BCMA on H929 cells) | cytotoxicity to huBCMA-expressing myeloma target cells (H929) (H929)
Ab-4: fully human anti-huBCMA mAb, Vh SEQ ID NO:212, Vl SEQ ID NO:246 (antibody, V domains shown) VH: QVQLVQSGAEVKKPGASVKVSCKASGYTFTGHYIHWVRQAPGQGLEWMGWIYPNSGGTNYAQKFQGRVTMTRDTSISTAYMELSRLRSDDSAVYYCAREGMVTGDYYYYRMDVWGQGTTVIVSS VL: QPVLTQPPSASASLGASVTLTCSLSSGYSNYKVDWYQQRPGKGPRFVMRVGIGGIVGSKGDGIPDRFSVLGSGLNRYLTIKNIQEEDESDFHCGADHGSGNNFVYVFGTGTKVTVLG | + (A sample was considered positive for binding if the MFI was two times the negative control value) | bound to human BCMA | 
29C12.1 ADC (conjugate) VH: EVQLLESGGALVQPGGSLRLSCAASGFTFSSYAMNWVRQAPGKGLEWVSAISVGGDTYYADSVKGRFTISRDNSKNTLYLQMNSLRAEDTAVYYCAKDQVTMVRGVWYYYGLDVWGQGTTVTVSS VL: DIVMIQSPLSLPVTPGEPASISCRSSQSLLHSNGNNYLDWYLQKPGQSPHLLISLGSNRTSGVPDRFSGSGSGTDFTLKISRVEAEDVGVYYCMQALQPPRRFGQGTKLEIKR |  |  | showed cytotoxicity
32B5.1 ADC (conjugate) VH: EVQLLESGGALVQPGGSLRLSCAASGFTFSSYAMNWVRQAPGKGLEWVSAISVGGDTYYADSVKGRFTISRDNSKNTLYLHVNSLSAEDSAVYYCAKDQVTLVRGVWYYYGLDVWGQGTTVTVSS VL: VIVLIQSPLSLPVTPGEPASISCRSSQSLLHSNGNNYLDWYLQKPGQSPHLLISLGSNRTSGVPDRFSGSGSGTDFTLKISRVEAEDVGFYYCMQALQPPRRFGQGTKLEIKR |  |  | showed cytotoxicity
35D2.1 ADC (conjugate) VH: EVQLLESGGALVQPGGSLRLSCAASGFTFSSYAMNWVRQAPGKGLEWVSAISVGGGTYYADSVKGRFTISRDNSKNTLYLHVNSLRAEDTAVYYCAKDQVTMVRGVWYYYGLDVWGQGTTVTVSS VL: VIVLIQSPLSLPVTPGEPASISCRSSQSLLHSNGNNYLDWYLQKPGQSPHLLISLGSNRTSGVPDRFSGSGSGTDFTLKISRVEAEDVGFYYCMQALQPPRRFGQGTKLEIKR |  |  | showed cytotoxicity
40D7.1 ADC (conjugate) VH: EVQLLESGGALVQPGGSLRLSCAASGFTFSSYAMNWVRQAPGKGLEWVSAISVGGDTYYADSVKGRFTISRDNSKNTLYLQMNSLRAEDTAVYYCAKDQVTMVRGVWYYYGLDVWGQGTTVTVSS VL: DIVMIQSPLSLPVTPGEPASISCRSSQSLLHSNGNNFLDWYLQKPGQSPHLLISLGSNRTSGVPDRLSGSGSGTDFTLKISRVEAEDVGIYYCMQALRPPRRFGQGTKLEIKR |  |  | showed cytotoxicity
37B2.1 ADC (conjugate) VH: EVQLLESGGALVQPGGSLRLSCAASGFTFSNYAMNWVRQAPGKGLEWVSAISVGGDTYYADSVKGRFTISRDNSKNTLYLHVNSLSAEDSAVYYCAKDQVTLVRGVWYYYGLDVWGQGTTVTVSS VL: VIVLIQSPLSLPVTPGEPASISCRSSQSLLHSNGNNYLDWYLQKPGQSPHLLISLGSNRTSGVPDRFSGSGSGTDFTLKISRVEAEDVGFYYCMQALQPPRRFGQGTKLEIKR |  |  | showed cytotoxicity
33C7.1 ADC (conjugate) VH: EVQLLESGGALVQPGGSLRLSCAASGFTFSSYAMNWVRQAPGKGLEWVSAISVGGDTYYADSVKGRFTISRDNSKNTLYLHVNSLSAEDSAVYYCAKDQVTLVRGVWYYYGLDVWGQGTTVTVSS VL: VIVLIQSPLSLPVTPGEPASISCRSSQSLLHSNGNNYLDWYLQKPGQSPHLLISLGSNRTSGVPDRFSGSGSGTDFTLKISRVEAEDVGFYYCMQALQPPRRFGQGTKLEIKR |  |  | showed cytotoxicity
